Assay results published in patent publication US20120114667A1 (AstraZeneca / MedImmune, published 2012).

Columns and labels:
Macaque α5β1 = target: T1, Macaque α5β1 (Macaque); assay: FACS on macaque PBMC, 1 mM Mn2+
T1 construct: whole, on cells; macaque species not specified; also called monkey α5β1; monkey integrin
Procedure: To determine whether the antibodies cross reacted to monkey integrin, binding to purified Macaque T-cells was assessed. Macaque PBMCs were previously purified from whole blood, and stored frozen. Macaque PBMCs were suspended in adhesion buffer with HBSS 1% BSA and 1 mM Mn2+ (“FACS buffer”), at a concentration of 4.8×10⁵ live cells per ml. 12.5 uL of the primary antibody was added to 37.5 ul of cells, and incubated at 4° C. for 1 hour. Positive and negative controls were included as indicated. 100 uL of FACs buffer is added to dilute out primary antibody, the cells washed and resuspended in the appropriate secondary at 2 ug/mL (50 uL) with 10 ug/mL 7AAD, and stained on ice for 7 minutes. 100 uL of FACs buffer was added and cells were washed twice in FACS buffer, finally the supernatant removed and the cells were resuspended in 100 uL of buffer.
Samples were read on HTS FACS machine and analyzed using Cell Quest Pro software. The data shown in Table 7 confirm that the antibodies cross react with monkey α5β1.

[1] = target: T2, α4β1 integrin on J6.77 Jurkat cells (UniProt P13612 34-1032; P05556 21-798); assay: cell-based or functional assay
T2 sequence (P13612 34-1032, chain 1 of 2): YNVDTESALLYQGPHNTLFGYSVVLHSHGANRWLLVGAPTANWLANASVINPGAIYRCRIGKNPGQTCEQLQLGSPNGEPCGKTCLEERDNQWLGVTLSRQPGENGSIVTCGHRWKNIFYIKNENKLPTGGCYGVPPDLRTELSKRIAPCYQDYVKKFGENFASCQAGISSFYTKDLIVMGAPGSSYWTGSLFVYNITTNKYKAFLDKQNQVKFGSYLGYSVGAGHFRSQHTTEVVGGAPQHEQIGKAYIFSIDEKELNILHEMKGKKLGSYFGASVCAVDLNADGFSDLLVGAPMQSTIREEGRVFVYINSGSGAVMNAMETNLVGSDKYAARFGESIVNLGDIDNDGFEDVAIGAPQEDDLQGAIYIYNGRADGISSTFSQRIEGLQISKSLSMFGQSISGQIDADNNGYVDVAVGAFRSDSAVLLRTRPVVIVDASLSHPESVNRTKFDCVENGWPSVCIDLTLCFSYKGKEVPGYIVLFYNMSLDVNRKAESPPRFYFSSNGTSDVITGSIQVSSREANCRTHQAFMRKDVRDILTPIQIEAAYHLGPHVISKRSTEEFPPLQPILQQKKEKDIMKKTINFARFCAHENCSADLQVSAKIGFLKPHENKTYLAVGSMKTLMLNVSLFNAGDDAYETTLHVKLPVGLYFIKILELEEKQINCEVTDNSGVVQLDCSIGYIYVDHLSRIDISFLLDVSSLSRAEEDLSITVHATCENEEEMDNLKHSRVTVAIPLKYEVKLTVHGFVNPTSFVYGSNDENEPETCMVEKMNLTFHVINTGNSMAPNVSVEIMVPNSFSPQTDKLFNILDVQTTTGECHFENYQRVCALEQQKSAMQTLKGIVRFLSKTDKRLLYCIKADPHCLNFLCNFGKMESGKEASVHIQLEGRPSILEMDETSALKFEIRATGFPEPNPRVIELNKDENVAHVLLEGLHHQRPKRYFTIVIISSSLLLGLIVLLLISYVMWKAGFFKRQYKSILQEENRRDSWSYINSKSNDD
T2 sequence (P05556 21-798, chain 2 of 2): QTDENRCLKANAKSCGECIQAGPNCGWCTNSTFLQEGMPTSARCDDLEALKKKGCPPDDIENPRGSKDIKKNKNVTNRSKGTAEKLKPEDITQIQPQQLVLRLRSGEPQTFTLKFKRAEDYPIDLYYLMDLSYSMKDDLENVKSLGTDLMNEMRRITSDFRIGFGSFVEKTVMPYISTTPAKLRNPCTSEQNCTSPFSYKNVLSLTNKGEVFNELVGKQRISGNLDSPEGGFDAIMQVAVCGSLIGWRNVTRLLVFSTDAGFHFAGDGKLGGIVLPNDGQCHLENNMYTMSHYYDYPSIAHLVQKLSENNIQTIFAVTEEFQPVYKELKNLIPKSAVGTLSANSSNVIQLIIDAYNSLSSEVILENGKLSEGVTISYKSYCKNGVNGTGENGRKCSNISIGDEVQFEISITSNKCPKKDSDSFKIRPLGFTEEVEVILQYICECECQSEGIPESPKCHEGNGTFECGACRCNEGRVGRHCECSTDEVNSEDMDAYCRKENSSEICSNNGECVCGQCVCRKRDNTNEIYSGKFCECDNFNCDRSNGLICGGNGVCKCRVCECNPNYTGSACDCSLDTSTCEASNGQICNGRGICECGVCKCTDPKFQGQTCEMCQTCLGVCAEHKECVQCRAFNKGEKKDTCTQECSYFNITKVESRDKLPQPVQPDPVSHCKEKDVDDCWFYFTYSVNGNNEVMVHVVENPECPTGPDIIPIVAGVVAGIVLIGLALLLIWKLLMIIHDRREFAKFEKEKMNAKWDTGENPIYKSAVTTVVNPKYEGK

[2] = target: T3, β1 integrin chain on HT29 cells (α5 null line) (human, UniProt P05556 21-798); assay: FACS on HT29 cells (no α5, β1 present)
T3 construct: whole, on cells; β1 is paired with alpha chains other than α5 on these cells; also called β1 chain; beta1
T3 sequence (P05556 21-798): as the sequence (P05556 21-798, chain 2 of 2) above
Procedure: To confirm the antibodies bind to the α5 chain or to the α5β1 heterodimer, binding to Human colon adenocarcinoma grade II cells (HT29 cells) was assessed by FACS. […] HT-29 cells were suspended in HBSS with 1% BSA and 1 mM final MnCL₂ at a concentration of 6×10⁵ cells/ml.12.5 uL of the primary antibody was added to 37.5 ul of cells and the plate incubated on ice for 60 minutes. A range of negative controls were included as described previously (indicated as below). In addition as a positive control antibodies to αvβ6 (Mab2077, Chemicon), α5β1 (Mab1909, Chemicon) and av (L230, Chemicon) were included. 100 uL of HBSS buffer was added to dilute primary antibody, the cells pelleted by centrifuging at 1500 rpm for 3 minutes and resuspended in 50 ul Goat anti-human IgG Fc Cy5 or Goat anti Mouse IgG Fc Cy5 secondary at 2 ug/mL. They were then incubated on ice for a further 7 minutes, and 100 uL of HBSS buffer was added to dilute secondary antibody. Finally cells were pelleted by centrifuging at 1500 rpm for 3 minutes, HBSS Buffer/secondary supernatant removed, washed twice in 100 ul of FACS buffer was added and the cells were resuspended and then read on a FACS Calibur HTS. Samples were analyzed using Cell Quest Pro software. The data is represented in Table 6 and confirm that the antibodies are selective for α5β1.

[3] = target: T2, α4β1 integrin on J6.77 Jurkat cells; assay: cell-based or functional assay; remark: listed apart in the source
human α5β1 integrin [4] = target: T4, human α5β1 integrin (human, UniProt P08648 42-1049; P05556 21-798); assay: cell-based or functional assay
T4 sequence (P08648 42-1049, chain 1 of 2): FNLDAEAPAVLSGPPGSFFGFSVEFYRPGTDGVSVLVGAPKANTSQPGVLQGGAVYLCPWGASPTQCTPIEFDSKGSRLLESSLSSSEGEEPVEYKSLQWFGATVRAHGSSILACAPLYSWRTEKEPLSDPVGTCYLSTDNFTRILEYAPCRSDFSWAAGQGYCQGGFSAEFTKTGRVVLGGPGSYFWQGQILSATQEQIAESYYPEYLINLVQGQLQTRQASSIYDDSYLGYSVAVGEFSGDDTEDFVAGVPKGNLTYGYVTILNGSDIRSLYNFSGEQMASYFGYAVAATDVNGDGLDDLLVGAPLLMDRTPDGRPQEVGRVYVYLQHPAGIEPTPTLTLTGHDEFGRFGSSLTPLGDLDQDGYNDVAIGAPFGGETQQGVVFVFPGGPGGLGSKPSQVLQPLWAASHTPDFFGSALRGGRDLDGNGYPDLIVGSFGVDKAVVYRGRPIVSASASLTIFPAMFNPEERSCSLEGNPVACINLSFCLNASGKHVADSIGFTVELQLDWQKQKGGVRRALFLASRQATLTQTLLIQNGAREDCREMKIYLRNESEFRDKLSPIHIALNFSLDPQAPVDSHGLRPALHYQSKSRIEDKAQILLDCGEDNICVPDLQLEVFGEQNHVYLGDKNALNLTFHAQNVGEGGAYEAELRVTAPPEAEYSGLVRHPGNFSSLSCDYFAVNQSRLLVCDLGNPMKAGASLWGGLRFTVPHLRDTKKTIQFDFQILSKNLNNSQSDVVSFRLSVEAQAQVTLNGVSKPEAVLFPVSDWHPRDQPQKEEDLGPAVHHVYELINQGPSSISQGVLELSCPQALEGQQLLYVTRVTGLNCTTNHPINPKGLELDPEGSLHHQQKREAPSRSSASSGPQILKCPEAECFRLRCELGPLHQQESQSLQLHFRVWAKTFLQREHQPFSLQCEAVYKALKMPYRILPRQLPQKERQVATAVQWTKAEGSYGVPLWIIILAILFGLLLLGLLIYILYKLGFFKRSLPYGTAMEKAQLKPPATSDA
T4 sequence (P05556 21-798, chain 2 of 2): as the sequence (P05556 21-798, chain 2 of 2) above

human α5β1 integrin [5] = target: T4, human α5β1 integrin; assay: cell-based or functional assay; remark: listed apart in the source
human α5β1 integrin [6] = target: T4, human α5β1 integrin; assay: FACS-based KD titration on K562 cells, 4 C, 5 h, 1 mM MgCl2 and 1 mM CaCl2
Procedure: To assess the affinity of the antibodies for α5β1, a FACS based KD analysis was employed. […] K562 cells expressing α5β1 were resuspended in filtered HBS buffer containing 1 mM MgCl₂ and 1 mM CaCl₂ at a concentration of approximately 2.5-6 million cells/mL. The cells were kept on ice. Serially diluted (2×) mAbs across 11 wells in a 96-well plate. All mAbs were diluted in HBS described above. Additional HBS and cells were added to each well so that the final volume was 300 μL/well and each well contained approximately 140,000-150,000 cells. The final molecular concentration range for each mAb was 3C5: 3.8 nM -7.5 μM; 5B11: 3.8 nM-7.3 μM. Cells were incubated on a plate shaker for 5 hours at 4° C. and then were spun/washed 3× at 4° C. with HBS. […] The Mean Fluorescence (F) of 7000 “events” was determined using FACS Canto II HTS flow cytometry instrumentation. To calculate affinity, data was fitted nonlinearly to a plot of the Mean Fluorescence as a function of molecular mAb concentration with Scientist 3.0 software using the equation:
In this equation, F=mean fluorescence, LT=total molecular mAb concentration, P′=proportionality constant that relates arbitrary fluorescence units to bound mAb, M=cellular concentration in molarity, n=number of receptors per cell, B=background signal, and KD=equilibrium dissociation constant. […]

mouse α5β1 integrin = target: T5, mouse α5β1 integrin (mouse, UniProt P11688 45-999; P09055 21-728, limits assumed); assay: not described
T5 construct: printed only as mouse integrin / murine integrin; also called mouse integrin; murine integrin
T5 sequence (P11688 45-999 limits assumed, chain 1 of 2): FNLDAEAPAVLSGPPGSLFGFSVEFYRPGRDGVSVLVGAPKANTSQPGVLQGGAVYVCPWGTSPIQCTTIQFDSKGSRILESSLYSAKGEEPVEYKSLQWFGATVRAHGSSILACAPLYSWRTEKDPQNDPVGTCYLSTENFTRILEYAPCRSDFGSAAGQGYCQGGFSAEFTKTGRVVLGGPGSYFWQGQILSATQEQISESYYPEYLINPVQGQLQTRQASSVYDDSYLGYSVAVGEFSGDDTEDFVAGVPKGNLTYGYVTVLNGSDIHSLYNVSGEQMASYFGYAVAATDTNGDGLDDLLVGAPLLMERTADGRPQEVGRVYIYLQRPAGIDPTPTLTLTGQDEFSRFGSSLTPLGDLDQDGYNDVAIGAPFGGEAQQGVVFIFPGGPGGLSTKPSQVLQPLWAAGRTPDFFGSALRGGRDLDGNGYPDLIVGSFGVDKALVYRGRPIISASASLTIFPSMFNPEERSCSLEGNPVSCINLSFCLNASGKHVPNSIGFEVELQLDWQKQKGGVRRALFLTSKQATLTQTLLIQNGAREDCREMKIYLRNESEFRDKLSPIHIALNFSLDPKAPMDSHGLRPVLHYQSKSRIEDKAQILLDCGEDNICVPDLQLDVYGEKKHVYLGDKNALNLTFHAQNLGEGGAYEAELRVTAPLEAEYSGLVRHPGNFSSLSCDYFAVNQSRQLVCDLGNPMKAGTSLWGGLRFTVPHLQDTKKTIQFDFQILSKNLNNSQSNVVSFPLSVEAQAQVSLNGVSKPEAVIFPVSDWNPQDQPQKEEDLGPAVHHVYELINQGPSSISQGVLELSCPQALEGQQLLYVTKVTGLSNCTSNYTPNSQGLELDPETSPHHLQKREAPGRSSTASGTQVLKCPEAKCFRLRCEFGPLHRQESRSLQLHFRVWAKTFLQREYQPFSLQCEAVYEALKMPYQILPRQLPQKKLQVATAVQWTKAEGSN
T5 sequence (P09055 21-728 limits assumed, chain 2 of 2): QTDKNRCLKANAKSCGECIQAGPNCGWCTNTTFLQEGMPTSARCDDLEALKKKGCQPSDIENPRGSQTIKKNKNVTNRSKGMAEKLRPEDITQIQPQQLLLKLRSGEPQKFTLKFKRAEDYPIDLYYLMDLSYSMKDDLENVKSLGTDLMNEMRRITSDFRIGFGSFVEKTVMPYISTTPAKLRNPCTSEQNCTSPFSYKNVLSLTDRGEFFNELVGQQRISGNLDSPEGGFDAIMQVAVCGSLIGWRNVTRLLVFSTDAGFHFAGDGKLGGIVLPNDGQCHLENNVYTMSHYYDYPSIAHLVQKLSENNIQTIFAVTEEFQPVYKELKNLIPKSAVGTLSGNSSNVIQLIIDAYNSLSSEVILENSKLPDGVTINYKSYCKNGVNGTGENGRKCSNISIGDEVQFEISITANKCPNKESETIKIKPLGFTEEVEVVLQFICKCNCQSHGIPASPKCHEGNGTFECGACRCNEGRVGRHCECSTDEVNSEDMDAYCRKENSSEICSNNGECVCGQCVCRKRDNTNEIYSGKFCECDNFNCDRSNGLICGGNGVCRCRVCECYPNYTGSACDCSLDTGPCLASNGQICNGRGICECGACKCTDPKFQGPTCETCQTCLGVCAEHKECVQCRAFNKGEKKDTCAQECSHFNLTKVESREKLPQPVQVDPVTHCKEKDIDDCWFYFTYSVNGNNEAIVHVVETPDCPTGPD

B1: 3C5 (antibody, IgG2, V domains shown)
VH: RVQLQESGPGLVKPSQTLSLTCTVSGGSIISGGYFWTWIRQHPGKGLEWIGYIYYSGSTYYSPSLKSRVTISVDTSKNQFSLKLSSVTAADTAVYYCTRAVPAAKGYYSYYGMDVWGQGTTVTVSS
VL: DIVMTQSPLSLPVTPGEPASISCRSSQSLLHSSGYNYLDWFLQKPGQSPQLLIYLSSNRASGVPDRFSGSGSGTDFTLKISRVEAEDVGVYYCMQALQTPFTFGPGTKVDIK
notes: also called MAb 3C5; mAb 3C5
Geo Mean on Macaque T-cells IgG detection (Macaque α5β1): 16
% Inhibition of adhesion CS1 n = 1 (J6.77 Jurkat on GST-CS-1) [1]: 24%
% Inhibition of adhesion CS1 n = 2 (J6.77 Jurkat on GST-CS-1) [1]: -4%
Binding Geomean [2]: 4.04
binding result [2]: no binding
Average % inhibition at 5 ug/ml (J6 adhesion to GST-CS-1) [3]: 0%
% Inhibition of cell adhesion n = 1 (K562 on full length FN) (human α5β1 integrin [4]): 97%
% Inhibition of cell adhesion n = 2 (K562 on full length FN) (human α5β1 integrin [4]): 96%
% Inhibition of cell adhesion n = 3 (K562 on GST-FNIII(9-10), no pre-incubation) (human α5β1 integrin [4]): 99%
% Inhibition of cell adhesion n = 4 (K562 on GST-FNIII(9-10), supernatant 1 in 10) (human α5β1 integrin [4]): 97%
% Inhibition of cell adhesion n = 5 (K562 on GST-FNIII(9-10), supernatant 1 in 10) (human α5β1 integrin [4]): 104%
IC50 ng/mL (K562 adhesion to GST-FNIII(9-10)) (human α5β1 integrin [5]): 12.4 ng/mL
Kd (human α5β1 integrin [6]): 14.7 pM
binding result (mouse α5β1 integrin): no binding

B2: 8A6.1A3 (antibody, IgG4, V domains shown)
VH: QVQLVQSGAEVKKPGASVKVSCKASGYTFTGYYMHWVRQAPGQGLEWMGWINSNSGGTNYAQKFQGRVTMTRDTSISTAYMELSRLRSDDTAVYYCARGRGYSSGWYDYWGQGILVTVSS
VL: DIVMTQSPDSLAVSLGERATINCKSSQSVFFSSSNENYLTWYQQKPGQPPKLLIYWASTRESGVPDRFSGSGSGTDFTLTISSLQAEDVAVYYCQQYYNIPWTFGQGTKVEIK
Geo Mean on Macaque T-cells IgG detection (Macaque α5β1): 11
% Inhibition of adhesion CS1 n = 1 (J6.77 Jurkat on GST-CS-1) [1]: 24%
% Inhibition of adhesion CS1 n = 2 (J6.77 Jurkat on GST-CS-1) [1]: 9%
Binding Geomean [2]: 2.99
binding result [2]: no binding
Average % inhibition at 5 ug/ml (J6 adhesion to GST-CS-1) [3]: -23%
% Inhibition of cell adhesion n = 1 (K562 on full length FN) (human α5β1 integrin [4]): 99%
% Inhibition of cell adhesion n = 2 (K562 on full length FN) (human α5β1 integrin [4]): 95%
% Inhibition of cell adhesion n = 3 (K562 on GST-FNIII(9-10), no pre-incubation) (human α5β1 integrin [4]): 91%
% Inhibition of cell adhesion n = 4 (K562 on GST-FNIII(9-10), supernatant 1 in 10) (human α5β1 integrin [4]): 92%
% Inhibition of cell adhesion n = 5 (K562 on GST-FNIII(9-10), supernatant 1 in 10) (human α5β1 integrin [4]): 90%
IC50 ng/mL (K562 adhesion to GST-FNIII(9-10)) (human α5β1 integrin [5]): 52.2 ng/mL

B3: 2F5.1A4 (antibody, IgG2, V domains shown)
VH: QMQLVQSGAEVKKPGASVKVSCKASGYTFTGYYMHWVRQAPGQGLEWMGWINTNSGGTNCAQKFQVRVTMTRDTSISTAYMELSRLRSDDTAVYYCARGRGYSSGWYDYWGQGTLVTVSS
VL: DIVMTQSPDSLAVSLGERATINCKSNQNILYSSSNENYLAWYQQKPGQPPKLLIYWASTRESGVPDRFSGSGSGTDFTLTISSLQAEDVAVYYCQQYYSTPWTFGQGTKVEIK
Geo Mean on Macaque T-cells IgG detection (Macaque α5β1): 13
% Inhibition of adhesion CS1 n = 1 (J6.77 Jurkat on GST-CS-1) [1]: 31%
% Inhibition of adhesion CS1 n = 2 (J6.77 Jurkat on GST-CS-1) [1]: -8%
Binding Geomean [2]: 2.94
binding result [2]: no binding
Average % inhibition at 5 ug/ml (J6 adhesion to GST-CS-1) [3]: -12%
% Inhibition of cell adhesion n = 1 (K562 on full length FN) (human α5β1 integrin [4]): 96%
% Inhibition of cell adhesion n = 2 (K562 on full length FN) (human α5β1 integrin [4]): 100%
% Inhibition of cell adhesion n = 3 (K562 on GST-FNIII(9-10), no pre-incubation) (human α5β1 integrin [4]): 103%
% Inhibition of cell adhesion n = 4 (K562 on GST-FNIII(9-10), supernatant 1 in 10) (human α5β1 integrin [4]): 91%
% Inhibition of cell adhesion n = 5 (K562 on GST-FNIII(9-10), supernatant 1 in 10) (human α5β1 integrin [4]): 84%
IC50 ng/mL (K562 adhesion to GST-FNIII(9-10)) (human α5β1 integrin [5]): 97.8 ng/mL

B4: 5B11 (antibody, IgG2, V domains shown)
VH: QVQLVESGGGVVQPGRSVRLSCAASGFTFSSYGMHWVRQTPGKGLEWVAIIWYDGGIEYYADSVKGRFTISRDNSKNTLYLQMNSLRAEDTAVYYCARDHRYGSSWFDYWGQGTLVTVSS
VL: DIQMTQSPSSLSASVGDRVTITCRASQGINNYLAWFQQKPGKAPKSLIYAASSLQSGVPSNFSGSGSGTDFTLSISSLQPEDFATYYCQQYKSYPLTFGGGTKVEIR
notes: also called MAb 5B11; mAb 5B11
Geo Mean on Macaque T-cells IgG detection (Macaque α5β1): 12
% Inhibition of adhesion CS1 n = 1 (J6.77 Jurkat on GST-CS-1) [1]: 27%
% Inhibition of adhesion CS1 n = 2 (J6.77 Jurkat on GST-CS-1) [1]: -15%
Binding Geomean [2]: 4.62
binding result [2]: no binding
Average % inhibition at 5 ug/ml (J6 adhesion to GST-CS-1) [3]: -9%
% Inhibition of cell adhesion n = 1 (K562 on full length FN) (human α5β1 integrin [4]): 96%
% Inhibition of cell adhesion n = 2 (K562 on full length FN) (human α5β1 integrin [4]): 98%
% Inhibition of cell adhesion n = 3 (K562 on GST-FNIII(9-10), no pre-incubation) (human α5β1 integrin [4]): 90%
% Inhibition of cell adhesion n = 4 (K562 on GST-FNIII(9-10), supernatant 1 in 10) (human α5β1 integrin [4]): 97%
% Inhibition of cell adhesion n = 5 (K562 on GST-FNIII(9-10), supernatant 1 in 10) (human α5β1 integrin [4]): 102%
IC50 ng/mL (K562 adhesion to GST-FNIII(9-10)) (human α5β1 integrin [5]): 28.4 ng/mL
Kd (human α5β1 integrin [6]): 34.7 pM
